We go through nine molecules from US20200317768A1 (published 2020).

Substitutions are numbered along the chain they refer to.

Test [1] addresses T1, cynomolgus monkey FcγRIIb extracellular domain with C-terminal His-tag (cynomolgus monkey).
T1 construct: Expressed in FreeStyle 293 cells and purified; also called cyno FcγRIIb; cynoFcγRIIb; not shown: C-terminal His-tag
T1 chain: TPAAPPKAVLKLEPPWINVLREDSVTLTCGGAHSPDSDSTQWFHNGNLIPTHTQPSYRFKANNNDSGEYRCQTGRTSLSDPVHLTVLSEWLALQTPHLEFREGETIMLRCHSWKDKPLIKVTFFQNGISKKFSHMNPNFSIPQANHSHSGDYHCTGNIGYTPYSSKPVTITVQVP
Kind of test: SPR (Biacore), antibody captured on chip, FcgR extracellular domain as analyte, 25 C. On the technique in general: In SPR one partner is held on a chip, and binding of the other changes the refractive index at the surface.

Test [2] has as its target T2, human FcγRIIaR extracellular domain with C-terminal His-tag (human, UniProt P12318 34-217).
T2 construct: Expressed in FreeStyle 293 cells and purified; also called human FcγRIIa (type R); FcgRIIaR; not shown: C-terminal His-tag
T2 chain: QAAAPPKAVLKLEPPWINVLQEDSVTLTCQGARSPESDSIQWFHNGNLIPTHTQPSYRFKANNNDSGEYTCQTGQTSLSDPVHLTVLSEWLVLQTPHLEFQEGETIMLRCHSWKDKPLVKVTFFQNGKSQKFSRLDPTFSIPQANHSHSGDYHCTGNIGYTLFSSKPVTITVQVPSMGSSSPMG
Described as above.

Test [3] addresses T3, human FcγRIIb extracellular domain with C-terminal His-tag (human, UniProt P31994 43-217).
T3 construct: Expressed in FreeStyle 293 cells and purified; also called humanFcgRIIb; not shown: C-terminal His-tag
T3 sequence: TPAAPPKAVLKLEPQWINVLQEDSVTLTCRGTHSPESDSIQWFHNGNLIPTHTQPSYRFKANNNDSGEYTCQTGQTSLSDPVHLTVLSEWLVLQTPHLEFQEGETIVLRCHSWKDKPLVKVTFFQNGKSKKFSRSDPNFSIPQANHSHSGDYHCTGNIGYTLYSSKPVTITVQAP
The description is as above.

For test [4], the target named is T4, cynomolgus monkey FcγRIIa2 extracellular domain with C-terminal His-tag (cynomolgus monkey).
T4 construct: Expressed in FreeStyle 293 cells and purified; also called cyno FcγRIIa2; cynoFcgRIIa2; not shown: C-terminal His-tag
T4 chain: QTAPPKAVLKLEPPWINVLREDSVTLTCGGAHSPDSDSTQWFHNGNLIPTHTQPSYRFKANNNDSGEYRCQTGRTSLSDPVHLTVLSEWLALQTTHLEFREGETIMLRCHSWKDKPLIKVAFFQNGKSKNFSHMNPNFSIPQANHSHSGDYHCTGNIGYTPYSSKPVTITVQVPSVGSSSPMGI
The description is as above.

Test [5] has as its target T5, cynomolgus monkey FcγRIIa3 extracellular domain with C-terminal His-tag (cynomolgus monkey).
T5 construct: Expressed in FreeStyle 293 cells and purified; also called cyno FcγRIIa3; cynoFcgRIIa3; not shown: C-terminal His-tag
T5 chain: T4 chain with K127I, N130K, H133P, Q142R
The description is as above.

Test [6] concerns the target T6, cynomolgus monkey FcγRIIIaS extracellular domain with C-terminal His-tag (cynomolgus monkey, UniProt Q8SPW2 21-206 at identity 1.00)).
T6 construct: Expressed in FreeStyle 293 cells and purified; also called cyno FcγRIIIaS; cynoFcγRIIIaS; not shown: C-terminal His-tag
T6 chain: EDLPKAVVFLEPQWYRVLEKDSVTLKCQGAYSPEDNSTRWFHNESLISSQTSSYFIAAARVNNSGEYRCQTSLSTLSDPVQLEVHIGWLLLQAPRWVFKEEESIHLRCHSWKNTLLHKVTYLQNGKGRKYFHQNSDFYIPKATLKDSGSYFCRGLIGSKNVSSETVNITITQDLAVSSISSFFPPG
The test is described as above.

Test [7] addresses T7, cynomolgus monkey FcγRIIa1 extracellular domain with C-terminal His-tag (cynomolgus monkey).
T7 construct: Expressed in FreeStyle 293 cells and purified; also called cyno FcγRIIa1; cynoFcgRIIa1; not shown: C-terminal His-tag
T7 chain: T4 chain with T95P, A121T, K127I, S128A, N130K, N135D, Q142R
Described as above.

Test [8] concerns the target T2, human FcγRIIaR extracellular domain …. Kind of test: SPR (Biacore); KD of SG1 divided by KD of the variant for this FcgR.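 Also: relative to parent M103205H795-SG1 carrying the SG1 human heavy chain constant region.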

B1: M103205H795-MY176 / M103202L889-SK1 (antibody, human IgG1, kappa)
heavy: QVTLKESGPVLVKPTETLTLTCTVSGIDLSHDDISWVRQAPGKGLEWVGIISYAGSTYYASWAKGRLTISKDTSKNQVVLTMTNMDPVDTATYYCARGVPAYSHGGDLWGQGTLVTVSSASTKGPSVFPLAPSSKSTSGGTAALGCLVKDYFPEPVTVSWNSGALTSGVHTFPAVLQSSGLYSLSSVVTVPSSSLGTQTYICNVNHKPSNTKVDKKVEPKSCDKTHTCPPCPAPELLNGPSVFLFPPKPKDTLMISRTPEVTCVVVDVSEEDPEVKFNWYVDGVEVHNAKTKPREEQYNSTYRVVSVLTVLHQDWLNGKEYKCKVSNKALPAPIEKTISKAKGQPREPQVYTLPPSREEMTKNQVSLTCLVKGFYPSDIAVEWESNGQPENNYKTTPLVLDSDGSFFLYSKLTVDKSRWQQGNVFSCSVMHEALHNHYTQKSLSLSP
light: DIVMTQSPATLSLSPGERATLSCTSSQSVYHANWLSWFQQKPGQPPKLLIYWASTLAYGVPSRFSGSGSGTDFTLTISSLQPEDAATYYCAGGYGGGRYAFGQGTKVEIKRTVAAPSVFIFPPSDEQLKSGTASVVCLLNNFYPREAKVQWKVDNALQSGNSQESVTEQDSKDSTYSLSSTLTLSKADYEKHKVYACEVTHQGLSSPVTKSFNRGEC
notes: Position 396 variant derived from MY052, expressed with M103202L889-SK1 as light chain
As a reminder, the Kd is the constant that tells how readily two partners part at equilibrium. Turning to B1, the Kd in test [1] came out at 620 nM; in test [2], 1300 nM; in test [3], 7000 nM; in test [4] it was 1400 nM; in test [5], 5000 nM; in test [6] it was 2700 nM. In test [7], the Kd is 1300 nM. Also, the “KD fold (SG1 = 1)” value in test [8] was found to be 0.8 fold.

B2: M103205H795-MY182 / M103202L889-SK1 (antibody, human IgG1, kappa)
heavy: B1 heavy with L398V
light: B1 light
notes: as for B1
As to B2, the Kd in test [1] was found to be 960 nM; in test [2], 2100 nM; in test [3] it was 1200 nM; in test [4], 2200 nM; in test [5], 7800 nM; in test [6], 3500 nM. Besides, binding in test [7] was put at a Kd of 2100 nM. The “KD fold (SG1 = 1)” value in test [8] turned out to be 0.5 fold.

B3: M103205H795-MY179 / M103202L889-SK1 (antibody, human IgG1, kappa)
heavy: B1 heavy with L398R
light: B1 light
notes: as for B1
As to B3, the equilibrium dissociation constant (Kd) in test [1] amounted to 980 nM; in test [2] it was 2100 nM; in test [3] it was 12000 nM; in test [4] it was 2000 nM; in test [5], 7900 nM; in test [6], 2700 nM. The molecule also showed a dissociation constant (Kd) in test [7] of 1900 nM. Also, in test [8], the “KD fold (SG1 = 1)” value stood at 0.5 fold.

B4: M103205H795-MY184 / M103202L889-SK1 (antibody, human IgG1, kappa)
heavy: B1 heavy with L398Y
light: B1 light
notes: as for B1
Regarding B4, the dissociation constant Kd came to 980 nM in test [1]; 2000 nM in test [2]; 1100 nM in test [3]; 2000 nM in test [4]; 8400 nM in test [5]; 3300 nM in test [6]. For the same molecule, the Kd in test [7] turned out to be 1900 nM. Besides, the “KD fold (SG1 = 1)” value in test [8] came out at 0.6 fold.

B5: M103205H795-MY183 / M103202L889-SK1 (antibody, human IgG1, kappa)
heavy: B1 heavy with L398W
light: B1 light
notes: as for B1
In the case of B5, the equilibrium dissociation constant (Kd) in test [1] is 970 nM; in test [2] it was 2100 nM; in test [3], 1100 nM; in test [4], 2000 nM; in test [5], 8400 nM; in test [6], 3500 nM. In test [7], this molecule returned a Kd of 2100 nM. The “KD fold (SG1 = 1)” value in test [8] was found to be 0.5 fold.

B6: M103205H795-MY181 / M103202L889-SK1 (antibody, human IgG1, kappa)
heavy: B1 heavy with L398T
light: B1 light
notes: as for B1
In the case of B6, the Kd in test [1] is 1000 nM; in test [2], 2500 nM; in test [3] it was 14000 nM; in test [4] it was 2300 nM; in test [5], 9200 nM; in test [6], 4100 nM. In test [7], this molecule returned a Kd of 2300 nM. Also, the “KD fold (SG1 = 1)” value in test [8] worked out at 0.4 fold.

B7: M103205H795-MY180 / M103202L889-SK1 (antibody, human IgG1, kappa)
heavy: B1 heavy with L398S
light: B1 light
notes: as for B1
In the case of B7, the Kd in test [1] worked out at 1300 nM; in test [2] it was 3000 nM; in test [3], 19000 nM; in test [4], 2700 nM; in test [5], 12000 nM; in test [6], 3100 nM. This molecule returned a dissociation constant Kd in test [7] of 2600 nM. Also, the “KD fold (SG1 = 1)” value in test [8] turned out to be 0.4 fold.

B8: M103205H795-MY178 / M103202L889-SK1 (antibody, human IgG1, kappa)
heavy: B1 heavy with L398Q
light: B1 light
notes: as for B1
Take B8: the equilibrium dissociation constant (Kd) is 950 nM in test [1]; 2300 nM in test [2]; 13000 nM in test [3]; 2100 nM in test [4]; 8700 nM in test [5]; 3000 nM in test [6]. In test [7], this molecule yielded a dissociation constant (Kd) of 2000 nM. Besides, the “KD fold (SG1 = 1)” value in test [8] is 0.5 fold.

B9: M103205H795-MY177 / M103202L889-SK1 (antibody, human IgG1, kappa)
heavy: B1 heavy with L398N
light: B1 light
notes: as for B1
With B9, the Kd in test [1] stood at 830 nM; in test [2], 2800 nM; in test [3], 11000 nM; in test [4], 1800 nM; in test [5] it was 8100 nM; in test [6], 2900 nM. This molecule also returned a Kd in test [7] of 1900 nM. For the same molecule, the “KD fold (SG1 = 1)” value in test [8] was 0.6 fold.
